Reference: publication PMC9524272 (Frontiers in Immunology, 2022)

Tests used:
[1] = target: SARS-CoV-2 spike receptor binding domain, Delta B.1.617.2 (SARS-CoV-2 Delta B.1.617.2 (on …, strain))
[2] = target: SARS-CoV-2 Spike RBD Omicron BA.4&BA.5 (SARS-CoV-2 Omicron BA.4/BA.5, strain)
[3] = target: SARS-CoV-2 spike receptor binding domain, Beta B.1.351 (SARS-CoV-2 Beta B.1.351 (on Wuhan-Hu-1 …, strain))
[4] = target: SARS-CoV-2 spike receptor binding domain, Omicron BA.1 (IPBCAMS-OM01/2021) (SARS-CoV-2 Omicron BA.1, isolate …, strain)
[5] = target: SARS-CoV-2 spike receptor binding domain, Wuhan-Hu-1 (WT) (SARS-CoV-2 Wuhan-Hu-1, UniProt P0DTC2)

B1: H7 (VHH)
VHH: QVQLVESGGGLVQPGGSLRLSCAASGYSYRSTYYLGWFRQAPGQGLEAVAAIYGAGSTYYADSVKGRFTISRDNSKNTLYLQMNSLRAEDTAVYYCAAGDESTRGYGYSWDYWGQGTLVTVSS
Kd [1]: 7.2 nM
binding result [2]: binds
Kd [3]: 3.7 nM
binding result [4]: binds
Kd [5]: 4.4 nM
